Drawing on PMC4151696, this text covers K half for 1 substance.

One series deals with TRF2. Briefly: EMSA. (A gel shift assay detects complexes by their altered migration in electrophoresis.)
The subject of another series is TRF1. The experiment in a line: EMSA.

On to Cy3 telomeric PCR product (255 bp), for which the values for the K half in the series on TRF2 and in the series on TRF1 were 111 nM and 152 nM, respectively.
